In the DeepSol protein solubility set:

experiment: soluble on expression in E. coli; label from the status in PepcDB or PDB records

Sequence | soluble on expression in E. coli
MLGDVYHLFSGGKDSSLAAWILRKLGYEVRLVTITFGVLDNWKYAKETADILGFEHEVVRLPRELLNMAVEMCIEDGKPGRAIQFLHEKALEYVASRSYVKRISDGTRRDDKVPFLDLRKARSLEDRFNVAYIRPLLGLGYKTIRELANSIFVIEERESEKLEKGDYEAELRYMLRERGINPKTIFPSRHMQSRVVGIKDDELGRS | soluble
MLGNLKPQAPDKILALMGEFRADPRQGKIDLGVGVYKDATGHTPIMRAVHAAEQRMLETETTKTYAGLSGEPEFQKAMGELILGDGLKSETTATLATVGGTGALRQALELARMANPDLRVFVSDPTWPNHVSIMNFMGLPVQTYRYFDAETRGVDFEGMKADLAAAKKGDMVLLHGCCHNPTGANLTLDQWAEIASILEKTGALPLIDLAYQGFGDGLEEDAAGTRLIASRIPEVLIAASCSKNFGIYRERTGCLLALCADAATRELAQGAMAFLNRQTYSFPPFHGAKIVSTVLTTPELRADWMAELEAVRSGMLRLREQLAGELRDLSGSDRFGFVAEHRGMFSRLGATPEQVKRIKEEFGIYMVGDSRINIAGLNDNTIPILARAIIEVGV | soluble
MLGSRNIKFSVQIFKKRRSNCNVRCVVCGREIETGSLCGKCMVEKEEVAKIDEFEITVCSRCNLIRLGNRWVERSVEEVIEEMVLRNARVVEEFNVTEVAISQEHCVFRGEISGDEVKILVPLKYRINKVLCEKCSREAGGYYESIVQLRAAGRELSDEEIEKALEIVDEVISSAPEDQKAFISKLERKREGVNIFFGSRNIGKKVSRMIMKKLGGSITESKKLHTRIDGRDVYRFTYSVKLPEYREGDIVEKEGRFAVVRNSVAGKGLDILTGKTVNLGNERVAVRREDLKSGVVVNADPNAVEVVCEDGRLVTTPKPSGAEIGAEVKVFEINGKFFSVYEGGQSSEELEHHHHHH | soluble
MLHLPTIETSSAGRRRRKANSEVDSGAEEPTATSSSDDKSDYRLDLKKRLTTFLTSNSQMASSDSGVSGVESTVEHDLSELKASDSPMSHDGADSPRPELDRTDIVVCGECHTSFSLSCFSNFIEHKVSNCGGKLTPSDDCEVTPRNFDRSRRRTFNPAALIRCGRSTSANALLPNYNMDVTTDTNDLGSSSKSLTCCNCKERFGDVWTLLKHSYDIHGLRVCQEAIPESDVSVTSTSSPTSNESMHMSSRYNHNDTSSKIMHQTIKSESTMMNSFCSERLKEIVTRAGEQDQKPLMALRRLMPSEETEEEQVSAFTSTSLLNSRASQPQLPTVSSSAGFQTSGSMPNVWMQPSMLAAMQEYYASIQQMPYPMTNSTAVALLNISNNLQQQQQQQQQLQQQQQNLIAAQPQVATPQPPAPTPLFQSLNRLSTADESSYTPRPASVAIRRRASPEEELTPPRKSMKIEEEDQLIVVDDGELAEPAARKPNNIKKERCNFCNKVFTNRSNLIVHLRSHTGEKPYKCQLCPYACAQSSKLTRHMRTHGQQGKETYHCYICRMPFSVHSTLEKHMRKCVVSTQGRREGGSPPERSIRPTPSALAEATSLLALSAPSISVPPQPQASTVGQNQSQSHQIVLNWLHALNASNSTPTATSKEDMIEADEDMEETEASDLQSHQPLTSESNQIATVAN | not soluble
MLIDTDFFLSNRSDSLVLDVRSPEEYRRGHIPGAESFPLFSDAERAEVGTLYVRHSRQAAVERGLEFVGPRMAEMVREARSLAAGRDIILYCWRGGMRSESVAWLLSVAGLRIRRLRGGYKAYRRHFPDILKLYPWRFIVLGGYTGSGKTPILNELTQMGEQVIDLEGLAHHKGSAFGALGQEQQPTTEHFMNLLHDALSACDPNRPIWVESESKTIGRVFLPDDFYKVMRQAPLIELSVPRPVRIAHIAKEYGVYDAEALANSFEHIARRMGGAATTQAITALKEGRLEEAVSLALDYYDKAYAHSLAEFRESSSARLAVETDTPHETAIKLLELSHIKGLQS | not soluble
MLIEPRDPLIVRDGRPFTNSPGARAKSLPFPLPQTLAGAYRTRRALLEGLPLPERAEEVLRWGLRGPLLAEEGEGGWRLLAPRPLDALKLGEALYPLRPLELPQGAGTNLPEGLSPVGLPSPALKEKPAPLPAFWYWESFLEWLLQDAPAGFAPRGHEGPVPETRTHVALDPAAQTAREGFLFQTSGLEFVRGRRRLALVLWPEGPEPEGVFPLGGERRLAFWQKGGPGVPPLPEEVVAGLLRHRAARLVFLTPAFLGEAYLPKGRAFQGASVVAAVVGRPLAVSGWNLKEGKPKPSRRAVPAGSVYFVRLPEAWGEGEVRDWAEKVWFQNLSEEEQDRRDGFGLAALGLWDGKLRRWEEA | soluble
MLIFEGKEISTDSEGYLKETTQWSEALAVAIAANEGIELSAEHWEVVRFVREFYLEFNTSPAIRMLVKAMANKFGEEKGNSRYLYRLFPKGPAKQATKIAGLPKPVKCI | not soluble
MLILGHPLIPSARFVFIKNTDAIHSNTNNDIVCFEAHPKNLELAKYCCENSVHFSVIFLSHKIETDTFFLFNAFKPLYCIFKDIKQAILAQQHATNYLLDSKILFFMDLNDTELWEICAKSQIDGVISKDSLLLK | soluble
MLILSEQEIQRLYTMEEAISDVKEILRQKQAGNVNTPERTVLSFPHYDASILYMPSVKTGAAAVKVVSIFPHNPPLGKPTTQGVIILTDTKTEEHRMLCNATYLTRLRTGALSAIAADYLAKREASRLAVIGTGAMAREQVAGMLEVRGIEHIFLYNRTRSKAERFALEGW | not soluble
MLINKTKRAEQNLNNLPFLALQAEQIEFLGSSAEFKTQIIELIRNAKKRIYVTALYWQKDEAGQEILDEIYRVKQENPHLDVKVLIDWHRAQRNLLGAEKSATNADWYCEQRQTYQLPDDPNMFFGVPINTREVFGVLHVKGFVFDDTVLYSGASINNVYLHQFEKYRYDRYQKITHAELADSMVNFINDYLLDFSAVYPLDVTNRPRTKEIRGNIRAYRKDLAQNGEYSLKSAVKLPNVLSVSPLFGLGASGNELNQVIEDLFLQVQKKLVICTPYFNFPRTLQHKIATLLENGKRVEIIVGDKVANDFYIPPEQPFKMAGALPYLYESNLRRFCEKFETQIESGQLVVRLWRDGDNTYHLKGVWVDDRYILLTGNNLNPRAWRLDAENGLLIYDPQQQLLAQVEKEQNQIRQHTKVLKHYTELEELNQYPEPVQKLLKKFARIKADKLVKMILAAALEHHHHHH | soluble
MLIQIDSNVLFANVDTLGNIVSTTTNGIGSAGKTTLDGHYSSISGFDQLGASHGAVIKGGIGSAMKTMQQLTEQVNWLKEALNSSRLAFSSQNNFVSRGMDIADEGGNVGGEEVVFPNRPDVVYEDFSFPQPVVQKASSIDELAAAFASTNDSEVEEAVATWKSLSEMATETSQDLRNVAAEVGEHNHGAVFDKAVERIGEIAANAESFAANASTMANHVGLMSQLKTMRMSDVLSAQQALSKIEDPMERKVLEEEFLSRLQSAIQSDVGQSVPVIRNLVTMRSTGGNSGQSIATGMETIAGNGKFSHTGLSSASGATLQPATMGQHPDNLGDFAAVNSRTGQSIDPFSLSTQQAGWTSPDFQPSAGGSSGLNPIKAPLTSAHSSMPASAQTVSTHPSSATGLGVTPIGPRADAMAMYPSANSKPHNSGLNGTSKIGGSSIAQLGASPQSGVSRSAAFGAAGTQSAHSARMSPMMGAPMGAAGSKKRGKTKSVTSSVEEDNNIAALLGESPAVVPGVIGSWVRG | not soluble
MLIVGEDFGMRVSVLASSSSGNATYIETPGHKVLVDAGLSGKKIETLMQSIGRDLTDVDSVFITHEHSDHVRGVGVLARRYPKLSVYANAKTFAALPKSVGKIPEDQLRLFDMGATLTLGDLDVESFGVSHDAAAPQFYQFHHDGKTFTILTDTGYVSDRVAGTIRDADAYVMECNHDLEMLRTGPYPWPLKQRILGDQGHLSNEDGADALMDVIGLRTKRIYLGHLSPHNNNKPLAHLTVASLLAQQGLAVDHDFRIYDTDPAVADPLFVVLEHHHHHH | not soluble
MLKELSILTGGDGVGFQSAPEQQSLQPAELKPVNVSINSIDELMLFFESLNYTPENFHGGNKSVPRITFDAVGEGWRSVSDQLPVKQKKMVFFRLMTPLVLLANEKVLQERQQVMSAPLDDAELIALAVKYKVISNPTQPLLASHRQALLERVDILPPSLVLAQAAKESGWGTSRFTLEGNALFGQWDFNGNGMEPKQKRQGMGRYGLARFETPLASVEGYLLNLNTHSAYYKMRQLRAQSRHANQMITGTALAGTLDRYSERGHAYVEMIRKMIRTNKLYLADEAYLNDDMPLHLLTRTN | soluble
MLKFENVTKSFKDGNRNIEAVKDTNFEINKGDIIALVGPSGSGKSTFLTMAGALQTPTSGHILINNQDITTMKQKALAKVRMSEIGFILQATNLVPFLTVKQQFTLLKKKNKNVMSNEDYQQLMSQLGLTSLLNKLPSEISGGQKQRVAIAKALYTNPSIILADEPTAALDTENAIEVIKILRDQAKQRKKACIIVTHDERLKAYCDRSYHMKDGVLNLENETVE | not soluble
MLKGKYTKIEKVNGVEREYLITDKYGITIGRIFIVDLNKDNRFCMFRMKIYKQGKSINTYIKEILSVFMEFLFKSNDINKVNIIVDEEVSTQPFVELGFAFEGIINKSIIEKNVLKDEFLFGMDYKNYNSDRINVFKLYGKSITLKVLTPEDAENMLQYYIKNKEHLKPFEPEREESFYTFEAQKQMLIENYKQFINGEGTNFGIYKDAKLIGKIQISGTIYGVFKSAIIGYSIDKDYQGKGYMKDALRVAEAYAFNVMNLHRIEASALVDNLRSQNVLIGCGFEKLGINKNYLFINGRWQDHITFYKTNNN | not soluble
MLKIGVITMALLSFLNAGWLGNLFDSTPTPYYKMPIDLSKAGNVTETDIRIDEKYSVYVELYYDYRKQKISGDRYGEIIDKYFGRHKLFPIFPIKLTVLKYEKTGTTMVVDKIYYTNSLGRTYSSREIDEFKLQEGSKYHIKVETVEDYPELAELNVEVVIGYIKAK | not soluble
MLKLYLPCCRNNSTFAIRFSYASIAVDLILKIRQYMKRLHWILLLMILLIPTESISAKKKTEKSDREIWCDVMYRMAAPVLSNMSEGLLKQNMLVELSPTWDGRNQNVTYMECFGRLMAGLAPWLSLPDDETPEGLQRKQLREWALKSYANAVDPASPDYLLWRQENQTLVDAAFLAESFLRSYDALWMPLDSITKQRYIAEFTDLRRVDPSYSNWLLFSATVESFLRKAGAPSDTYRISSSLRKIEEWYVGDGWYSDGPRFAFDYYNSFVIHPMYIEALEIITEAGKREKIGNMPGCNFHEAIRRAQRFGVILERLISPEGTLPVFGRSITYRTGSLQTLALLAWRNWLPEELSNGQVRAAMTAVIQRMFGDGRNFNTAGFLTLGFNGSQPGISDYYTNNGSLYMASLAFLPLGLSADDPFWTDASQSWTSKKAWEGEEFPKDHSYHKELEHHHHHH | not soluble
MLKMKNNGGGCLAYISDCSVYLPVWKLKRDEISKETGMPSMGGERAVAHWDEDSITMAVEAARKFDGAFDAVIFASSSPPFRIKQCASFIASALDLPDSTFTMDITDTMRAATDALITANEFVDSGRFSRVLVVAGDKIPTKPGTLYEQLYGDAAAAVVVEKEGGAKILGYSTSTKPLPGSWMLADDDTVRDYDMRVDARYGYAASVQKAAMPLFAKLGLSPADIDRIVASAPDPKSYQGLLKAVGARPEEFYFDSVGIAGSAHPLLLLATQLEREGRILLGGYGEGADVIAVEIEQAMDSNMGRMLESRKEISYGDYLFNRGFVGVRDAPDRPSLTKFWRDEKSIIRFYGMKCKSCGTVSYPISRCCIECGAKDNYEEVRLGERGKIYTFTIDYLVMPGNYAGDGVHPHFIAVVDLDGGGRVLFELTDTLRDFSGVECDAEVERTFRLLFEKNRFRYYGWKARLPRLEHHHHHH | soluble
